First the molecules themselves.
B1: 6-H1L1 (antibody, V domains shown)
VH: QVQLVQSGAEVKKPGASVKVSCKASGYTFTTYTMHWVRQAPGQGLEWMGYINPSSGYTNYNQKFKDRVTMTRDTSTSTVYMELSSLRSEDTAVYYCSRLRSRGYFDYWGQGTLVTVSS
VL: DIQLTQSPSFLSASVGDRVTITCKASQNVGTAVVWYQQKPGKAPKLLIYSASNRYTGVPSRFSGSGSGTEFTLTISSLQPEDFATYYCQQYSSYPYTFGQGTKLEIK
notes: humanized 6G10D9, VH v1 x VL v1
B2: 6-H3L2 (antibody, V domains shown)
VH: B1 VH with K12A, R38K, M48L, R72A, S97A, R98S
VL: B1 VL with A13T, A43S, Y86F
notes: humanized 6G10D9, VH v3 x VL v2
B3: 6-H4L2 (antibody, V domains shown)
VH: B1 VH with K12A, V20M, R38K, M48L, M70L, R72A, S97A, R98S, V114L
VL: B1 VL with A13T, A43S, Y86F
notes: humanized 6G10D9, VH v4 x VL v2
B4: 6-H4L1 (antibody, V domains shown)
VH: B1 VH with K12A, V20M, R38K, M48L, M70L, R72A, S97A, R98S, V114L
VL: B1 VL
notes: humanized 6G10D9, VH v4 x VL v1
B5: 6-H3L1 (antibody, V domains shown)
VH: B1 VH with K12A, R38K, M48L, R72A, S97A, R98S
VL: B1 VL
notes: humanized 6G10D9, VH v3 x VL v1
B6: 6-H4L3 (antibody, V domains shown)
VH: B1 VH with K12A, V20M, R38K, M48L, M70L, R72A, S97A, R98S, V114L
VL: B1 VL with L4M, A13T, A43S, L78M, Y86F, Y87F
notes: humanized 6G10D9, VH v4 x VL v3
B7: 6-H3L3 (antibody, V domains shown)
VH: B1 VH with K12A, R38K, M48L, R72A, S97A, R98S
VL: B1 VL with L4M, A13T, A43S, L78M, Y86F, Y87F
notes: humanized 6G10D9, VH v3 x VL v3
B8: 6G10D9-XI (antibody, V domains shown)
VH: QVQLQQSGAELARPGASVKMSCKASGYTFTTYTMHWVKQRPGQGLEWLGYINPSSGYTNYNQKFKDKATLTAGKSSSTAYMQLSSLTSEDSAVYYCASLRSRGYFDYWGQGTTLTVSS
VL: DIVMTQSQTFMSTSVGDRVRITCKASQNVGTAVVWYQQKTGQSPRLLIYSASNRYTGVPDRFTGSGSGTDFTLTISNMQSEDLADFFCQQYSSYPYTFGGGTKLEIK
notes: also called 6G10D9 (chimeric); 6G1009-X1
B9: 34-XI (antibody, V domains shown)
VH: EVHLVESGGDLVKPGGSLKLSCAASGFTFSSYGMSWVRQTPDKRLEWVATISSGGSYTYYPDSVKGRFTISRDNAKNTLNLQMSSLKSEDTAMYYCARQGGDAMDYWGQGTSVTVSS
VL: DIVLTQSPATLSVTPGDSVSLSCRASQSINNNLHWYQQKSHESPRLLIKYASQSISGIPSRFSGSGSGTDFTLSINSVETEDFGMYFCQQSNSRLTFGAGTKLELK
notes: also called 34D3H1 (chimeric)
B10: 37B9C4-XI (antibody, V domains shown)
VH: EVNLEESGGGLVQPGGSMKLSCVASGFTFSDYWMNWVRQSPEKGLEWVAEIRLKSNNYATHYAESVKGRFTISRDDSKSSVYLQMNNLRAEDTGIYYCTRPLLWFRRYYAMDYWGQGTSVTVSS
VL: DIQMTQTTSSLSASLGDRITISCSASQGISNYLNWYQQKPDGTVKLLIYYTSSLHSGVPSRFSGSGSGTDYSLTISNLEPADIATYYCQQYSKLPFTFGSGTKLEIK
notes: also called 37B9C4 (chimeric); 37-XI

Ten molecules from patent publication US12281162 (LANOVA MEDICINES DEVELOPMENT, dated 2025) can be followed below.

Positions count from the first letter of the chain named.

The first assay deals with T1, human G-protein-coupled receptor family C group 5 member D (GPRC5D) (human, UniProt Q9NZD1 1-345).
T1 construct: whole, on cells; also called human GPRC5D protein
T1 sequence (Q9NZD1 whole entry): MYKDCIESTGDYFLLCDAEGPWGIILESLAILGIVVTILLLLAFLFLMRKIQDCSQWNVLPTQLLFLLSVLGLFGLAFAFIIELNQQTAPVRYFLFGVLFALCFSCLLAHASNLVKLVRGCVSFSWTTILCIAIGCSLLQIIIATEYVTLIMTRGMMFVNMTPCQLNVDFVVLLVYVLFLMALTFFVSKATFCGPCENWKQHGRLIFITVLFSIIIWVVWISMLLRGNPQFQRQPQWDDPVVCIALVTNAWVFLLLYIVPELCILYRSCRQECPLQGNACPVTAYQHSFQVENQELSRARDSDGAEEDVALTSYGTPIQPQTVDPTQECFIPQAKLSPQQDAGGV
Nature of the assay: FACS, CHO-K1/GPRC5D. On the technique in general: A flow cytometer gives signals particle by particle.
In turn, B1 yielded a Bottom of 193, a LogEC50 of about 3.1, a Span of about 6200 and a Top of about 6400.
Take B2: the Bottom is 68.9, the LogEC50 worked out at 2.24, the Span is 47400 and the Top was determined as 47500.
The molecule B3 displayed a Bottom of 9.56, a LogEC50 of 1.98, a Span of 39400 and a Top of 39400.
The molecule B4 had a Bottom of 61.5, a LogEC50 of 1.65, a Span of 50200 and a Top of 50300.
On the same counts, the results for B5 are -205, 2.35, 74500 and 74300.
B6: the Bottom worked out at 2340, the LogEC50 is 0.905, the Span was 124000 and the Top stood at 126000.
Take B7: the Bottom was found to be 3990, the LogEC50 came out at 0.955, the Span came out at 115000 and the Top is 119000.
Consider B8, for which the Bottom was determined as 6860, the LogEC50 was found to be 0.299, the Span was found to be 115000 and the Top is 122000.

The target of a further assay is T1, human G-protein-coupled receptor family …. As to the kind of experiment: FACS, CHO-K1/GPRC5D. The source holds these as a separate data set.
B9 displayed a Bottom of 16500, a LogEC50 of 0.495, a Span of 176000 and a Top of 192000.

Another assay shares this target. As to the kind of experiment: FACS, CHO-K1/GPRC5D. The source holds these as a separate data set.
B10 came in with a Bottom of 11700, a LogEC50 of 0.236, a Span of 177000 and a Top of 188000.

For the next assay the target is unchanged. As to the kind of experiment: FACS, NCI-H929 cells.
On to B9, for which the Bottom is 181, the LogEC50 was 0.759, the Span is 18000 and the Top came out at 18100.
Molecule B6 gave a Bottom of 80, a LogEC50 of 1.61, a Span of 28900 and a Top of 29000.
B7 had a Bottom of 130, a LogEC50 of 1.47, a Span of 21700 and a Top of 21900.
B8: the Bottom is 269, the LogEC50 was determined as 0.0515, the Span was determined as 13500 and the Top is 13800.
Regarding B10, the Bottom came to 338, the LogEC50 was -0.0562, the Span stood at 13500 and the Top worked out at 13800.

The target is the same in a further assay. Nature of the assay: FACS, CHO-K1/human GPRC5D.
As to B9, the Bottom amounted to 689, the LogEC50 was 0.578, the Span was 117000 and the Top is 118000.
In turn, B6 showed a Bottom of 109, a LogEC50 of 1.42, a Span of 146000 and a Top of 146000.
B7 gave a Bottom of 172, a LogEC50 of 1.41, a Span of 134000 and a Top of 134000.
Molecule B8 returned a Bottom of 524, a LogEC50 of 0.472, a Span of 104000 and a Top of 104000.
Regarding B10, the Bottom was found to be 793, the LogEC50 came out at 0.388, the Span is 113000 and the Top turned out to be 113000.

Another assay shares this target. Nature of the assay: FACS, CHO-K1/human GPRC5D, chimeric antibody. On the procedure:
CHO—K1 cells stably expressed human GPRC5D, were harvested from flasks. 100 µl of 1×10⁶ cells/ml of cells were incubated with primary chimeric antibodies in 3-fold serial dilutions starting from 300 nM to 0.001 nM for 30 minutes on ice. After being washed with 200 µl of FACS buffer twice, cells were incubated with secondary antibody for 30 minutes on ice. Cells were washed with 200 µl of FACS buffer twice and transferred to BD Falcon 5 ml tube and analyzed by FACS.
B9 registered a Bottom of 3450, a LogEC50 of 0.521, a Span of 504000 and a Top of 508000.
Turning to B8, the Bottom worked out at 6890, the LogEC50 was 0.101, the Span was 451000 and the Top is 458000.
Molecule B10 returned a Bottom of 2080, a LogEC50 of 0.249, a Span of 403000 and a Top of 405000.
